Source: patent US20210238276A1 (INTEGRAL MOLECULAR, published 2021)
Numbering of substitutions follows the chain as printed.

T1: hsGLUT4 M112A (human, UniProt P14672 1-509)
T1 sequence: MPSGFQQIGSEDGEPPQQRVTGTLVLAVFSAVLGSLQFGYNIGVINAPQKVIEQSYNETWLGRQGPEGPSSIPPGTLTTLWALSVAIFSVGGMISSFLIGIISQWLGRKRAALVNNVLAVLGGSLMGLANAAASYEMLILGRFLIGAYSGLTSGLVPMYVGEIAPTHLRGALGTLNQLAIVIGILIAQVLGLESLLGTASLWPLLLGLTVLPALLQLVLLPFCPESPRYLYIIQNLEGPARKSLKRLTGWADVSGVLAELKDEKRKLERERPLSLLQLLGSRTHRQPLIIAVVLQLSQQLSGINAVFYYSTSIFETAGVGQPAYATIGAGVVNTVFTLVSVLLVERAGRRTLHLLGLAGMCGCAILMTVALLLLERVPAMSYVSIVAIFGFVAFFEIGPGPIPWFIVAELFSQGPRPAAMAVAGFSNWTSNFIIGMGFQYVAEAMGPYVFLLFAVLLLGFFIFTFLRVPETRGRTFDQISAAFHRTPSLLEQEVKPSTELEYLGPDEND

T2: hsGLUT4 E162A (human, UniProt P14672 1-509)
T2 sequence: T1 sequence with A112M, E162A

T3: hsGLUT4 L260A (human, UniProt P14672 1-509)
T3 sequence: T1 sequence with A112M, L260A

T4: hsGLUT4 G348A (human, UniProt P14672 1-509)
T4 sequence: T1 sequence with A112M, G348A

B1: AB111 (Fc fusion)
scFv: ALTQPSSVSANPGETVKITCSGSGSWYGWFQQKSPGSAPVTVIYSNDKRPSDIPSRFSGSKSGSTSTLTITGVQVEDEAVYYCGNWDIFGAGTTLTVLGQSSRSSGGGGSSGGGGSAVTLDESGGGLQTPGGALSLVCKASGFTFSSHGMGWVRQAPGKGLEWVASISTGRYTFYAPAVKGRATISRDNGQSTVRLQLNNLRAEDTATYYCTKCAGLNGCGGGEIDAWGHGTEVIVSS
notes: Bivalent scFv-Fc; also called MAb AB111; not shown: Fc fragment of human IgG1, cloned in frame with the scFv
B2: AB108 (Fc fusion)
scFv: ALTQPSSVSANLGGTVKITCSGSSGSYGWYQQKAPGSAPVTLIYRNDKRPSDIPSRFSGSESGSTGTLTITGVQAEDEAVYFCGGYDSSAGYAAFGAGTTLTVLGQSSRSSGGGGSSGGGGSAVTLDESGGGLQTPGGALSLVCKASGFTFSSHGMGWVRQAPGKGLEWVGSISTGRYTFYAPAVKGRATISRDNGQSTLRLQLNNLRAEDTGTYYCTKCAGLNGCGGGEIDAWGHGTEVIVSS
notes: Bivalent scFv-Fc; also called MAb AB108; not shown: Fc fragment of human IgG1, cloned in frame with the scFv
B3: AB101 (scFv)
scFv: ALTQPSSVSANPGETVKITCSGSSNSYGWYQQKSPGSAPVTVIYYNDKRPSDIPSRFSGSKSDSTHTLTITGVRAEDEAVYFCGSYDSTYVGIFGAGTTLTVLGQSSRSSGGGGSSGGGGSAVTLDESGGGLQTPGGTLSLVCKASGFTFSSNAMGWVRQAPGKGLEWVAGISSDGRYTKYGSAVKGRATISRDNGQSTVRLQLNNLRAEDTGTYFCAKAFGNNYRRIYAGQIDAWGHGTEVIVSS
notes: Chicken-derived clone used as a control; the four lead clones were tested as scFv-human IgG1 Fc; also called MAb AB101

Tests used:
Experiment in all cases: flow cytometry, alanine-scan library in HEK-293T
[1] = molecular target: T1, hsGLUT4 M112A
In short: (§1)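 HEK-293T cells expressing individual GLUT4 alanine mutants were stained 48 h post-transfection with anti-GLUT4 scFv MAbs (2 μg/ml), then biotinylated secondary and streptavidin-PerCP, and read by high-throughput flow cytometry. Where used, cytochalasin B (10 uM final) was given for 30 min before and during primary antibody staining.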

[2] = molecular target: T2, hsGLUT4 E162A
In short: as §1

[3] = molecular target: T3, hsGLUT4 L260A
In short: as §1

[4] = molecular target: T4, hsGLUT4 G348A
In short: as §1

Row | Molecule | % of binding to wild type GLUT4 [1] | % of binding to wild type GLUT4 [2] | % of binding to wild type GLUT4 [3] | % of binding to wild type GLUT4 [4]
1 | 1F8 (antibody) | 120% | 87% | 98% | 109%
2 | B1 | 79% | 72% | 130% | 161%
3 | B2 | 57% | 41% | 108% | 94%
4 | B3 | 103% | 83% | 112% | 101%
